# Measurements taken from IntAct's records for PubMed 15479639.
# B1: Chaperone ric-8 (Caenorhabditis elegans), Q9GSX9-1 (parent)
# chain: MSEELHSDLIASIFGGKPAKIEEFFSKWNFANAAVSKFDMANSAKNELGDRICEVIENGELTHVLLETIKILSREKDGLEGLLNDPLCDKILAFAELSSNENNSKTVHTLMEAQKCLINTLFHSQRMRDRFYANPKTGENLQFFLGEFEENRRKTSSIDWIRLLNPVQAAEIWYFYHRIAFIATALGREFQKNWANDPKTIDSLLLAVEICTNRSENSTQDINRATEALKTFFNVFCHFHGDVKAIDHKNAAKTCQILRDAICSDVLTDDVVQSAIHCLSVPPLPMVLSVLCGKNSKNNGGENEEEKFFVEELSNMQLTEAILMHLDKQLTKVVALLLNDAPNQQQNPMLSAEASTLTDLVGPYFQVLARLCTDSKYVRRYCRIRVIPPLVSEEVQKRPEENNTLRGRIARIMMLPSSTKDVAAEFLFIICKRSVNRMIKYLGFGHSAGHLANLGLLGQINQPKHASDSEDSETEDYNQIKDSVNPVTGAIYPSDHGSALAGMSEEQKEYEAMKLVDAMNQMMETGIVKPGTIGDDGKIREVSHVLELLKNAPEPAPAENSDSDEE
# Variants of: B1
# Details: with gnao_caeel goa-1, P51875
# gnao_caeel goa-1, P51875, sequence (P51875 whole entry): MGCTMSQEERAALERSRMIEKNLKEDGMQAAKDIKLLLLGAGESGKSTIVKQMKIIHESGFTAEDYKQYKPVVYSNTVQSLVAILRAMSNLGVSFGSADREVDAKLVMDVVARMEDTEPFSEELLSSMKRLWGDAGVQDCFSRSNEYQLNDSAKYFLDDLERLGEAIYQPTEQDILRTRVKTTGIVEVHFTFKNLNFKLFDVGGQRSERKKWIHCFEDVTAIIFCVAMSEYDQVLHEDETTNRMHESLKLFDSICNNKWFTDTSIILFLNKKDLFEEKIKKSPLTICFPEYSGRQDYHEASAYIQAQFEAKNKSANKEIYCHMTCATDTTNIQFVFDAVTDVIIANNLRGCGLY
row,Variant,effect of a mutation on the interaction
1,L267F,increasing interaction
2,A275E,decreasing interaction
